Laboratory results reported in article PMC2781058 (Proceedings of the National Academy of Sciences of the …, 2009).

T1: Med18 (S. cerevisiae, UniProt P32585 1-307)
T1 sequence (looked up): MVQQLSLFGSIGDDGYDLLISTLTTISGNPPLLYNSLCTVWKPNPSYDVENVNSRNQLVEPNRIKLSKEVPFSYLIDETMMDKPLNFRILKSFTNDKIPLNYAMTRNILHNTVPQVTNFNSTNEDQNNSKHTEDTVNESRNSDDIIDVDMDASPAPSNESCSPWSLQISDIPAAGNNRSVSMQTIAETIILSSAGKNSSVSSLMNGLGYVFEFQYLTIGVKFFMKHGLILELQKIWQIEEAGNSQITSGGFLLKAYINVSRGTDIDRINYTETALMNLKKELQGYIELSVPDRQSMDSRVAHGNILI

B1: Med8 (natural protein, S. cerevisiae, UniProt P38304 1-223, looked up)
chain: MSQSTASLVPEGNQGSLQEDVSFDFNGVPGQALDAVRMRLAQLTHSLRRIRDEMSKAELPQWYTLQSQLNVTLSQLVSVTSTLQHFQETLDSTVVYPLPKFPTTSHESLVTTLLRKKNIPEVDEWMKYVRETSGVTTALLKDEEIEKLLQQDREITNWARTTFRNEYGKHDFKNEESLSEEHASLLVRDSKPSKPFNVDDVLKFTFTGEKPIITGSTSTSSSN
B2: Med20 (natural protein, S. cerevisiae, UniProt P34162 1-210, looked up)
chain: MGKSAVIFVERATPATLTELKDALSNSILSVRDPWSIDFRTYRCSIKNLPADVSKLMYSITFHHHGRQTVLIKDNSAMVTTAAAADIPPALVFNGSSTGVPESIDTILSSKLSNIWMQRQLIKGDAGETLILDGLTVRLVNLFSSTGFKGLLIELQADEAGEFETKIAGIEGHLAEIRAKEYKTSSDSLGPDTSNEICDLAYQYVRALEL

Biological target: T1, Med18
Assay: co-IP

| Binder | binding result |
| --- | --- |
| B1 | binds |
| B2 | binds |
